The target in assay [1] is T1, soluble recombinant human uPAR/His6 (R&D Systems, Cat. # 807-UK-100) (human, UniProt Q03405 23-303).
T1 construct: range 1-303; Bought protein; also called soluble uPAR; hu-uPAR
Nature of the assay: limited antigen ELISA, uPAR coat 20 ng/mL, sample 1:25. (In general: In an ELISA, binding on a coated surface is turned into a signal by an enzyme label.)
Target sequence in this assay (Q03405 other isoform, or with tags, fused parts or gaps limits assumed, form in doubt): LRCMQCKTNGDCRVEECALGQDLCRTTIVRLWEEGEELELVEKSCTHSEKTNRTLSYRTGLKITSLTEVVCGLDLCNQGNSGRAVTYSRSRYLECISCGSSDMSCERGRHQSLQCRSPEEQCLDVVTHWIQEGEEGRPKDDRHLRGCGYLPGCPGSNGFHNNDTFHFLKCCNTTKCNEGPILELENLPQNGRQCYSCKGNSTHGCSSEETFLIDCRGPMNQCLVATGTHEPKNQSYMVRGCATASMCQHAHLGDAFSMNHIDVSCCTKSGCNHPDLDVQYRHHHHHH
Description: ELISA plates were coated with a lower amount ofuPAR in comparison with the High Antigen Quantitation assay described below (320, 160, 80, 40 and 20 ng/mL). Samples containing one concentration of antibody (Ab) (1:25 dilution) were incubated overnight to allow Ab binding to approach equilibrium.

The target in assay [2] is T1, soluble recombinant human uPAR/His6 …. Nature of the assay: high resolution Biacore, mAb amine coupled, uPAR injected. (Surface plasmon resonance follows binding to a sensor surface in real time, without labels.)
Description: All mAbs were diluted into 10 mM sodium acetate, pH 4.0 for immobilization. […] All experiments were run at 23° C. with a flow rate of 100 μL/min. Serially diluted (2-fold) uPAR samples were randomly injected in triplicate for 90 seconds with several buffer injections interspersed for double referencing. A Biacore™ 2000 biosensor instrument was used for all high resolution experiments. Data were fit globally to a 1:1 interaction model with a term for mass transport included.
The target is the same in assay [3]. Nature of the assay: low resolution Biacore, mAb captured by goat anti-human, hu-uPAR 312 nM.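 Note: surface plasmon resonance on a CM5 chip with goat anti-human antibody surface made by amine coupling, each mAb from supernatant captured per flow cell, kinetics fitted including mass transport.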
Description: A high-density goat anti-human antibody surface over a CM5 Biacore™ chip was prepared using routine amine coupling. […] Each mAb was captured on a separate flow cell using a 30-second contact time at 10 μL/min followed by a 5-minute wash at a 100 μL/min flow rate for stabilization of the mAb baseline. […] All antigen samples were prepared in the running buffer.
A mass transport coefficient was used in fitting the data.
Assay [4] deals with T2, human urokinase-type plasminogen activator receptor (uPAR, CD87), cell-bound (human, UniProt Q03405 23-305).
T2 construct: whole, on cells; On B300.19 or L929 transfectants (full length cDNA), or native on U937 and PC-3 cells
Description: FACS competition, FITC-tc-uPA on L929 cells expressing human uPAR, supernatant 1:2.
Description: Briefly, murine fibroblast L929 cells (ATCC) were transfected to express human uPAR.

Assay [5] addresses T3, cynomolgus monkey uPAR, cell-bound (cynomolgus monkey, UniProt Q9GK78 23-305).
T3 construct: whole, on cells; also called cyno-uPAR
Description: FACS, GeoMean; cynomolgus uPAR expressed on 293T cells; antibody concentration not given. In general terms: A flow cytometer gives signals particle by particle.

Assay [6] addresses T4, lane 3: murine DI-human DII/DIII uPAR chimera (His-tagged).
T4 construct: The sheet prints only the lane number; also called Murine D1/Human D2D3; murine D1/humanD2D3
T4 uPAR ECD chimera: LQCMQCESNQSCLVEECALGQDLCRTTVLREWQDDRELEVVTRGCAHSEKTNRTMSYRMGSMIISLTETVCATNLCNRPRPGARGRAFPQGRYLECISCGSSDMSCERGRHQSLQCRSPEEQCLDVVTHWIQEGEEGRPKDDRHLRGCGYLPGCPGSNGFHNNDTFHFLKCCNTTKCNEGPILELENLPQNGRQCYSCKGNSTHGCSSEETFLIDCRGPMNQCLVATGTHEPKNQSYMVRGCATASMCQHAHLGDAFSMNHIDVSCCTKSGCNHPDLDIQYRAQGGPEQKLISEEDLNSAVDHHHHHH
Nature of the assay: Western blot of HEK293T culture supernatants with His-tagged uPAR proteins, probed with the antibody.
Description: (§1) Human-murine uPAR chimeras (His-tagged) were expressed in BEK293T cells and uPAR expression was detected using the anti-human uPAR mAbs as indicated.
(§2) Chimeric human-murine uPAR comprising murine D1/humanD2D3; murine D1/human D2/MuD3; and human D1D2/murineD3uPAR each with a C-terminal His tag were expressed as secreted proteins in HEK293T cells.

In assay [7] the target is T5, lane 4: human DI/DII-murine DIII uPAR chimera (His-tagged).
T5 construct: The sheet prints only the lane number; also called Human D1D2/Murine D3; human D1D2/murineD3uPAR
T5 uPAR ECD chimera: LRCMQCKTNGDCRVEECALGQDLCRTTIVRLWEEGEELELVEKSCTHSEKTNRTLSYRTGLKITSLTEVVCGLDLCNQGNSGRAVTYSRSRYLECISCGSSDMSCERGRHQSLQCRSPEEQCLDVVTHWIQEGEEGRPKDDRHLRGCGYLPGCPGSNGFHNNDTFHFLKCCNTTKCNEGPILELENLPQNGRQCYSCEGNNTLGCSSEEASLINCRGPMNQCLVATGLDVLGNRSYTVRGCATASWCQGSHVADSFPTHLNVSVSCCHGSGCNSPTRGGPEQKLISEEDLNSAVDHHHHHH
The assay is described as above.
Description: as §1, §2

Assay [8] deals with T6, recombinant cynomolgus uPAR ECD with C-terminal His tag (cynomolgus monkey, UniProt Q9GK78 23-303).
T6 construct: Used as conditioned medium of transfected HEK293 cells
Description: KinExA, solution equilibrium, human uPAR beads capture free antibody.
Description: Kinetic measurements of several of the antibodies were evaluated using the KinExA® method. This method involves solution-based determination of formal affinity measurements at equilibrium. […] The remaining active groups on the beads were blocked with 10 mg/ml BSA in 1 M Tris and stored in the blocking solution as recommended by the manufacturer. KinExA experiments were performed using an automated flow immunoassay system, KinExA 3000, in which beads coupled with human uPAR served as the solid phase.
The mixture was drawn through the human uPAR-coupled beads to accumulate unbound antibody. The captured antibody was detected using solutions containing a Cy5-conjugated goat anti-human IgG heavy and light chain specific secondary antibody in sample buffer. […] Three replicates of each sample were measured for all equilibrium experiments. The equilibrium dissociation constant (KD) was obtained from nonlinear regression analysis of the data using a one-site homogeneous binding model with an unknown ligand concentration contained within the KinExA software.

The values that follow come from patent US20080152587A1 (Amgen, published 2008).

T2 sequence (Q03405 23-305): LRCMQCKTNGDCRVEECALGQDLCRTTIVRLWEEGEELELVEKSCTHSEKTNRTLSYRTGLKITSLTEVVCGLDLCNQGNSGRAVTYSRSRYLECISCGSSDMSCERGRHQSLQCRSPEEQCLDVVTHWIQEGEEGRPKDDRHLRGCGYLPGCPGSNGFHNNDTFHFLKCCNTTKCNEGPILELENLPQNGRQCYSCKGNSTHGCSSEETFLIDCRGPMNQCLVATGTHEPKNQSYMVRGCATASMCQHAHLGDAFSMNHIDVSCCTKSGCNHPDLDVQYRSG
T3 sequence (Q9GK78 23-305): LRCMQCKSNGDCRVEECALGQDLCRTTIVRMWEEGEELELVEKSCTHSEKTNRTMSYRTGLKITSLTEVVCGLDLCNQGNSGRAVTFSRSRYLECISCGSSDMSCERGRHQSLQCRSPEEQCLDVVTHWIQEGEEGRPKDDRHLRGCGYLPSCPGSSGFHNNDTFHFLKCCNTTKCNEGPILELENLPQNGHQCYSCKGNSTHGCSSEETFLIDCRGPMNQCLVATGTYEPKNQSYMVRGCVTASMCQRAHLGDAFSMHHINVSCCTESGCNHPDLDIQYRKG

B1: fully human monoclonal antibody 4.18.1 (ATCC Accession Number PTA-7476) (antibody, V domains shown)
VH: EVQLVESGGGLIQPGGSLRLSCAASGFTVRNNYMNWVRQAPGKGLEWVSVIYTGGSTYYADSVKGRFTISRDNSRNTLYLQMNSLRAEDTAVYYCAREGAVAGFDYWGQGTLVTVSL
VL: EIVMTQFPATLSMSPGERATLSCRASQSVSSSLAWYQQTPGQAPRLLIYGASTRSTGFPARFSGIGSGTEFTLTISSLQSEDFAVYYCQQYGNWPLTFGQGTRLEIK
In general, Kd refers to the concentration at which binding is half-saturated. As usually defined, the koff is the first-order rate constant of dissociation. The term kon denotes the rate constant with which the complex forms. In the case of B1, the “LA at 20 ng/ml” value in assay [1] was found to be 0.27. For the same molecule, the Kd in assay [2] worked out at 0.446 nM; in assay [3], 1.5 nM. For the same molecule, the koff in assay [3] turned out to be 0.00016 s⁻¹. Besides, in assay [3], the kon came to 110000 M⁻¹ s⁻¹. Moreover, the “uPA/uPAR binding Inhibition %” value in assay [4] was 75%. The binding result is “binds” in assay [5], “binds” in assay [6] and “no binding” in assay [7].

B2: fully human monoclonal antibody 2.6.1 (ATCC Accession Number PTA-7475) (antibody, V domains shown)
VH: EVQLVESGGGLIQPGGSLRLSCAASGFTVITNYMNWVRQAPGKGLEWVSIIYTGGSTSYADSVKGRFTVSRDNSKNTLYLHMNSLRVEDTAVYYCAREIAVAGYYGMDVWGQGTTVTVS
VL: DIQMTQSPSSLSASVGDRVTITCRASQGIRNDLGWYQQKPGKAPKRLIYAASSLQSGVPSRFSGSGSGTEFTLTISSLQPEDFATYYCLQHNSYPLTFGGGTRVEIK
notes: also called mAb 2.6.1
On to B2, for which the “LA at 20 ng/ml” value in assay [1] was determined as 0.63. In addition, the Kd in assay [2] amounted to 0.249 nM; in assay [8] it was 1.09 nM; in assay [3] it was 0.57 nM. Besides, the koff in assay [3] was found to be 4.6e-05 s⁻¹. Moreover, the kon in assay [3] was determined as 81000 M⁻¹ s⁻¹. For the same molecule, in assay [4], the “uPA/uPAR binding Inhibition %” value turned out to be 80%. Besides, the results for the binding result in assay [6] and in assay [7] were “binds” and “no binding”, respectively.

B3: fully human monoclonal antibody 2.19.2 (ATCC Accession Number PTA-7474) (antibody, V domains shown)
VH: QVQLVESGGGVVQPGRSLRLSCAASGFTFSSYGMHWVRQAPGKGLEWVAVIWYDGSNKYYADSVKGRFTISRDNSKNTLYLQMNSLRAEDTAVYYCARDQHIVVVTAILDYWGQGTLVTVSS
VL: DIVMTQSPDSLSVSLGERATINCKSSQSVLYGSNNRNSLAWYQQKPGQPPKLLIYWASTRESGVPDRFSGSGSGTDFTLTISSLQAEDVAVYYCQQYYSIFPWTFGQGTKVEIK
B3: the “LA at 20 ng/ml” value in assay [1] is 0.65. Further, the results for the Kd in assay [2], in assay [8] and in assay [3] were 0.175 nM, 0.346 nM and 0.31 nM, respectively. In addition, the koff in assay [3] was found to be 4.3e-05 s⁻¹. In addition, the kon in assay [3] turned out to be 140000 M⁻¹ s⁻¹. Besides, in assay [4], the “uPA/uPAR binding Inhibition %” value worked out at 85%. The binding result is “no binding” in assay [6] and “binds” in assay [7].
